Measured values: patent US20080319173A1

Target: PSGL-1/mIgG2b produced in CHO cells with FUT2 (Se gene) and α1,3 GalNAcT (A gene) (mouse)
Assay: western blot, chemiluminescence volumes (Fluor-S Max MultImager), anti-A signal divided by anti-mIgG signal

relative A epitope density (ratio of blood group A to mIgG reactivity), fold over PSGL-1/mIgG2b made in 293T cells with FUT2 and the A gene: 3 fold
Substance: mouse anti-human blood group A all types (mIgM, Dako) (antibody)
